Substitutions are numbered along the chain they refer to.

T1: OX40 on OX40-overexpressing cells (OX40过表达细胞表面OX40) (UniProt P43489 29-277, limits assumed)
T1 construct: whole, on cells; The cell line and the construct of the overexpressing cells are not described; also called CD134; TNFRSF4
T1 sequence (looked up): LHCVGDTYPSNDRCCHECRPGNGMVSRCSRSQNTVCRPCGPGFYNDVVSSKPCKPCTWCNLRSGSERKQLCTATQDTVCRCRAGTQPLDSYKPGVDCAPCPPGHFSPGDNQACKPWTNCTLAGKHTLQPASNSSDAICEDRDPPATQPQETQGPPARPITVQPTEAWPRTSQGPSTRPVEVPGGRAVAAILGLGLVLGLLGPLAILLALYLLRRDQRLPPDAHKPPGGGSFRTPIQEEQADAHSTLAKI

B1: 23D1-8 (antibody, V domains shown)
VH: QVQLVQSGAEVKKPGASVKVSCKASGYTFTGYYIHWVRQAPGQGLEWMGRINPNSGGTDFAQKFQARVTMTRDTAINIVYMELSRLRSDDTAVYYCARVVVASYYFDNWGQGTLVTVSS
VL: not shown
B2: 18F5-2 (antibody, V domains shown)
VH: QVQMQESGPGLVKPSGTLSLICAVSGGSISSSKWWSWVRQPPGKGLEWIGEIYHSGSTNYNPSLKSRVTISIDKSKNQFSLRLTSVTAADTAVYYCARGDVLLWFGGQGTLVTVSS
VL: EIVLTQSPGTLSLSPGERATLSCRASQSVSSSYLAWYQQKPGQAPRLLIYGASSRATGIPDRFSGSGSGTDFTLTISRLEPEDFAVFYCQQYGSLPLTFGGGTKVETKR
B3: 26C3-4 (antibody, V domains shown)
VH: B2 VH with M4L, I21T, A23D, K33N, I72V, F79V, R82K, T84N, V101I
VL: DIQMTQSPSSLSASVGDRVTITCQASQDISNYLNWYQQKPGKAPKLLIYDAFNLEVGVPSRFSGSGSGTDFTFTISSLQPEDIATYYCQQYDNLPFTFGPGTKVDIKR
B4: 24B9-10 (antibody, V domains shown)
VH: QVQLQESGPGLVKPSGTLSLTCAVSGGSISSSNWWTWVRQPPGKGLEWIGEIYHSGSTNYNPSLKSRVTISVDKSKNQFSLKLSSVTAADTAVYYCARTGPIVTTEYWGQGTLVTVSS
VL: EIVLTQSPGTLSLSPGERATLSCRASQSVSSGYLAWYQQKPGQAPRLLIYGASIRATGIPDRFSGSGSGTDFTLTISRLEPEDFALYYCQQYGSSPLTFGGGTKVEIKR
B5: 23C4-1-5 (antibody, V domains shown)
VH: B2 VH with M4L, I21T, K33N, N59T, I72V, N77S, F79I, R82K, Q108R
VL: B4 VL with T20S, G32N, A44T, T75I, L86V, G93S, L97I, G101Q, K104R, V105L
B6: 21F3-11 (antibody, V domains shown)
VH: QVQLQESGPGLVKPSGTLSLTCAVSGGSISSSNWWSWVRQPPGKGLEWIGEIYHGGSTNYNPSLKSRITISVDKSKNQFSLKLSSVTAADTAMYYCATLPGYSSGWFDSWGQGTLVTVSS
VL: B4 VL with T5M, G32S, R46S, I54N, T57S, S77T, L86V, K104R
B7: 24A12-12 (antibody, V domains shown)
VH: B4 VH with S15A, T36N, K74T, S84T, I102T, E106D
VL: B4 VL with G32S, I54Y, I59M, D61E, L86I, S94R
B8: 16E4-10-5 (antibody, V domains shown)
VH: B2 VH with M4L, I21T, A23D, K33N, I72V, F79V, R82K, T84N, V101I
VL: B4 VL with G32R, I54N, I59M, L86V, L97I, G101Q, K104R, V105L
B9: 29A9-5 (antibody, V domains shown)
VH: QVQLQESGPGLVKPSGTLSLTCAVFGDSISSSYWWSWVRQPPGKGLEWIGEIYHSGSTHYNPSLKSRVTISVDKSKNHLSLKLISVTDADTAVYYCAGEDTGWPFDFWGQGTLVTVSS
VL: not shown
B10: 35B8-6 (antibody, V domains shown)
VH: QITLKESGPTLVKPTQTLTLTCTFSGFSLSTSAVNVGWIRQPHGKALEWLALIFWNDDKRYSPSLKNRLTITKDTSKDQVVLTMSNMDPVDTATYYCAQYNWNSSFDYWGQGTLVTVSS
VL: DIQMTQSPSSLSASLGDRVTITCQASQDINTYLNWYQQKPGKAPKVLIYDASNLETGVPSRFSGSGSGTDFTFTISSLQPEDIATFYCQQYDNLITFGGGTKVEIKR
B11: 48D10-5 (antibody, V domains shown)
VH: QVQLVQSGAEVKKPGASMKVSCKASGYTFANFGINWVRQAPGQGLEWMGWISAYNGYTNYAQQFQGRITMTTDTSTSTAYMELRSLRSDDTAIYYCVIWFGELLSFDYWGQGTLVTVSS
VL: DIQMTQFPSSLSASVGDRVTITCRASQDISNYLAWFQQKPGKAPKSLIYAASSLQSGVPSKFSGNGFGTDFTFPLSRMQPEDFASSYCQQYNNYTFTFGRGTKVEIKR
B12: 18F11-4 (antibody, V domains shown)
VH: QVQLQESGPGLVKPSGTLSLTCAVSGGSISSYNWWSWVRQPPGKGLEWIGEIYHSGSTNYNPSLKSRVTISVDKSKNQFSLKLSSVTAADTAVYYCARDEDYYGSGNYYHWGQGTLVTVSS
VL: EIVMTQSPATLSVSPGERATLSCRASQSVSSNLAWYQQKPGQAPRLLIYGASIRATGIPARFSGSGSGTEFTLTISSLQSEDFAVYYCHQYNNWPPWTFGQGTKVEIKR
B13: 21F9-12 (antibody, V domains shown)
VH: B12 VH with S57N, V93M, E100Q, Y108F, H110Y
VL: not shown
B14: 38D9-12 (antibody, V domains shown)
VH: QVQLQESGPGLVKPSGTLSLTCAVSGDSISSTNWWSWVRQPPGKGLEWIGEINHNGSTYYNPSLKSRVTISVDKSKNQFSLKLRSVTAADTAVYYCAREDYYYMDVWGKGTTVTVSS
VL: DIQMTQSPSSLSASVGDRVTITCRTSQGIWNDLGWYQQKPGKAPKRLIYAASSLQSGVPSRFSGSESGTEFTLTISSLQPEDFATYYCLQYNNYPLTFGGGTKVEIKR
B15: 28E3-4 (antibody, V domains shown)
VH: QVQLQESGPGLVKPSGTLSLTCAVSGGSISRSNWWTWVRQSPGKGLEWIGEIYHSGNTNYNPSLKSRVTISLDKSKNQFSLKLSSVTAADTAVYYCASSGSLYMDVWGKGTTVTVSS
VL: DIQMTQSPSSLSASVGDRVTISCRASQSTSSYLNWYQQKPGKAPRLLIYGASSLQSGVPSRFSGSGSGTDFILTISSLQPEDFATYYCQQSYSIPITFGQGTRLEIKR
B16: 29B8-3 (antibody, V domains shown)
VH: QVQLQESGPGLVKPSGTLSLTCAVSGVSISSSNWWSWVRQPPGKGLEWIGEIYHSGNTNYNPSLKSRVTISVDKSKNQFSLKLSSVTAADTAVYYCAETSTITTNYWGQGTLVTVSS
VL: B15 VL with S22T, S28T, T29I, R45K, G50A, G66E, I72T, S91T
B17: 4D9-12 (antibody, V domains shown)
VH: B15 VH with R31S, T36S, S41P, N59I
VL: B15 VL with S12L, A13S, Q27H, S28G, T29S, S31T, S67F, L78M
B18: 17D5-11 (antibody, V domains shown)
VH: QVQLQESGPGLVKPSETLSLTCAVSGGSINSTNWWSWVRQPPGKGLEWIGEIYHSGSTNYNPSLKSRVTISVDKSKNQFSLKLSSVTAADTAVYYCARGGAVALDYWGQGTLVTVSS
VL: EIVLTQSPGPLSLSPGDRATLSCRASQTVSSSYLAWYLQKPGQAPRLLIYGASIRATGIPDRFSGSGSGTDFTLTISRLEPEDFAVYYCQQYGNSPITFGQGTRLEIKR

The assay concerns the target T1, OX40 on OX40-overexpressing cells …. As to the kind of experiment: flow cytometry, hybridoma supernatant on OX40-overexpressing cells, goat anti-mouse IgG-PE.
B1: the Y586通道PE荧光值 is 166000.
Molecule B2 had a Y586通道PE荧光值 of 432000.
For the molecule B3, the Y586通道PE荧光值 is 416000.
Take B4: the Y586通道PE荧光值 worked out at 313000.
In the case of B5, the Y586通道PE荧光值 was 63900.
B6 yielded a Y586通道PE荧光值 of 171000.
In turn, B7 returned a Y586通道PE荧光值 of 343000.
Consider B8, for which the Y586通道PE荧光值 came to 377000.
With B9, the Y586通道PE荧光值 was 221000.
As to B10, the Y586通道PE荧光值 amounted to 243000.
For the molecule B11, the Y586通道PE荧光值 is 358000.
In turn, B12 registered a Y586通道PE荧光值 of 402000.
Molecule B13 gave a Y586通道PE荧光值 of 424000.
B14 came in with a Y586通道PE荧光值 of 243000.
The figure for B15 is 195000; for B16 it is 388000; for B17 it is 187000.
B18 came in with a Y586通道PE荧光值 of 475000.

For the origin of these results see CN114106174A (SUZHOU SCENE MEDICAL SCIENCE AND TECH LIMITED COMPANY, dated 2022).
